In patent US20130149309A1 one finds reduction of the interaction by imatinib (10 µM) data, which are given here for one molecule.

The assay addresses amyloid precursor protein C-terminal fragment (APP-CTF), P05067. The assay is described as follows: co-immunoprecipitation, HEK293 cells, with 10 µM imatinib. Conditions: remark: other sources report otherwise.

Chain of amyloid precursor protein C-terminal fragment (APP-CTF), P05067 (P05067 672-770 limits assumed): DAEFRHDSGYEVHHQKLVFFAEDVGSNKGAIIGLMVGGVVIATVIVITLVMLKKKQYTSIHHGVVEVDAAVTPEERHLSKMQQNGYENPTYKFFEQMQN

B1: gSAP-16K-HA (16 KDa C-terminal fragment, amino acid sequence 733-854, of gSAP with a C-terminal HA tag), A4D1B5 733-854 (protein, human, UniProt A4D1B5 733-854, looked up, not shown: small tags and cut ends)
chain: RLMKDLDNTEKNEKLKFSIIVRLPPLIGQKICRLWDHPMSSNIISRNHVTRLLQNYKKQPRNSMINKSSFSVEFLPLNYFIEILTDIESSNQALYPFEGHDNVDAEFVEEAALKHTAMLLGL
Take B1: the reduction of the interaction by imatinib (10 µM) came to 47%.
